B1: GRG23(L3P1.B20): GRG23 variant, SEQ ID NO:21; mutation at V206 (protein)
chain: METDRLVIPGSKSITNRALLLAAAAKGTSVLVRPLVSADTSAFKTAIQALGANVSADGDNWVVEGLGQAPHLDADIWCEDAGTVARFLPPFVAAGQGKFTVDGSEQLRRRPLRPLVDGIRHLGARVSSEQLPLTIEASGLAGGEYEIEAHQSSQFASGLIMAAPYARQGLRVRIPNPVSQPYLTMTLRMMRDFGLETSTDGATVSIPPGRYTARRYEIEPDASTASYFAAASAVSGRSFEFQGLGTDSIQGDTSFFNVLGRLGAEVHWAPNSVTISGPERLNGDIEVDMGEISDTFMTLAAIAPLADGPITITNIGHARLKESDRISAMETNLRTLGVQTDVGHDWMRIYPSTPHGGRVNCHRDHRIAMAFSILGLRVDGITLDDPQCVGKTFPGFFDYLGRLFPEKALTLPG
modifications: GRG23(L3P1.B20)
notes: mutation at V206
B2: GRG23(L3P1.F18): GRG23 variant, SEQ ID NO:25; T274→I (protein)
chain: B1 chain with I206V, T274I
modifications: GRG23(L3P1.F18)
notes: T274→I
B3: GRG23(L3P1.023): GRG23 variant, SEQ ID NO:27; R5→H (protein)
chain: B1 chain with R5H, I206V
modifications: GRG23(L3P1.O23)
notes: R5→H
B4: grg23(L3P1B3): GRG23 variant, SEQ ID NO:23; D75→H, E217→K (protein)
chain: B1 chain with D75H, I206V, E217K
modifications: GRG23(L3P1.B3)
notes: D75→H, E217→K

Numbering of substitutions follows the chain as printed.

The test concerns BL21*DE3 competent E. coli cells. The experiment in a line: Selection for glyphosate resistance on M63+ plates containing 150 mM glyphosate. Format: cell-based. To be noted: E. coli clones expressing the variant, 150 mM glyphosate plates. On the procedure: The mutagenized syngrg23 libraries were transformed into E. coli strain BL21*DE3 star (Invitrogen). Following transformation, individual colonies were plated on 1× M63 medium containing 150 mM glyphosate to select for clones that had retained enzymatic activity and growth tolerance.
Library ligations were transformed into BL21*DE3 competent E. coli cells (Invitrogen). The transformations were performed according to the manufacturer's instructions with the following modifications. After incubation for 1 hour at 37° C. in SOC medium, the cells were sedimented by centrifugation (5 minutes, 1000×g, 4° C.). The cells were washed with 1 ml M63+, centrifuged again, and the supernatant decanted. The cells were washed a second time with 1 ml M63+ and resuspended in 200 ul M63+.
The plates were incubated for 36 hours at 37° C.
Colonies identified on glyphosate plates were pinned into 96-well blocks containing LB medium and were grown to an O.D. of about 0.6. IPTG was then added (0.5 mM) and the blocks were incubated overnight at 20° C. to induce protein expression. Protein extracts were prepared from the cell pellets using POP culture reagent (Novagen) and Lysonase (Novagen), and the enzymatic activity in the crude lysates was measured after heating the extracts for 30 min at 37° C.
B1: the “glyphosate resistance (in words)” value is “retained glyphosate resistance”.

For B2, the “glyphosate resistance (in words)” value is “retained glyphosate resistance”. The entry for B3 is “retained glyphosate resistance”. Consider B4, for which the “glyphosate resistance (in words)” value is given as “retained glyphosate resistance”.

Values taken from patent US8252981B2 (Athenix Corp., priority 2006, dated 2012).
